{
  "source": "patent US11530434B2",
  "about": "“Cell mass evaluation method and device for analyzing state of cell mass” (HAMAMATSU PHOTONICS K.K., priority 2017, dated 2022)",
  "origin": "cited, not measured here",
  "test_system": "cell morphology",
  "details": "compared to the control state",
  "data": [
    {"molecule": "TGF-β2: reagent “TGF-β2” whose addition acts on the cell morphology (reported in Non-Patent Document 3) (protein, UniProt P61812 303-414, looked up) Transforming growth factor …: ALDAAYCFRNVQDNCCLRPLYIDFKRDLGWKWIHEPKGYNANFCAGACPYLWSSDTQHSRVLSLYNTINPEASASPCCVSQDLEPLTILYYIGKTPKIEQLSNMIVKSCKCS", "values": [
      {"measurement": "change of cell shape on addition of the reagent", "result": "makes the cell shape elongated"}
    ]}
  ]
}
